Laboratory results published in the supplement of paper PMC5998384.

How the values were obtained:
HeLa Kyoto [1] = test: solubility in G1/S (NP-40 vs SDS abundance) (log2 ratio); higher = more soluble; details: cell cycle stage: G1/S
HeLa Kyoto [2] = test: solubility change mitosis vs G1/S (difference of NP-40 vs SDS log2 ratios) (log2 ratio difference); higher = more soluble in mitosis
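Wherever solubility change mitosis vs G1/S (difference of NP-40 vs SDS log2 ratios) is given: synchronized HeLa Kyoto cells (double thymidine block for G1/S, nocodazole release for mitosis), protein amounts in NP-40 versus SDS lysates quantified by mass spectrometry, three biological replicates.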
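Wherever solubility in G1/S (NP-40 vs SDS abundance) is given: HeLa Kyoto cells arrested at G1/S by double thymidine block, proteins quantified by TMT10plex mass spectrometry in mild NP-40 versus SDS extracts, three biological replicates.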

Chain of MAST2 (chain, as listed by the source): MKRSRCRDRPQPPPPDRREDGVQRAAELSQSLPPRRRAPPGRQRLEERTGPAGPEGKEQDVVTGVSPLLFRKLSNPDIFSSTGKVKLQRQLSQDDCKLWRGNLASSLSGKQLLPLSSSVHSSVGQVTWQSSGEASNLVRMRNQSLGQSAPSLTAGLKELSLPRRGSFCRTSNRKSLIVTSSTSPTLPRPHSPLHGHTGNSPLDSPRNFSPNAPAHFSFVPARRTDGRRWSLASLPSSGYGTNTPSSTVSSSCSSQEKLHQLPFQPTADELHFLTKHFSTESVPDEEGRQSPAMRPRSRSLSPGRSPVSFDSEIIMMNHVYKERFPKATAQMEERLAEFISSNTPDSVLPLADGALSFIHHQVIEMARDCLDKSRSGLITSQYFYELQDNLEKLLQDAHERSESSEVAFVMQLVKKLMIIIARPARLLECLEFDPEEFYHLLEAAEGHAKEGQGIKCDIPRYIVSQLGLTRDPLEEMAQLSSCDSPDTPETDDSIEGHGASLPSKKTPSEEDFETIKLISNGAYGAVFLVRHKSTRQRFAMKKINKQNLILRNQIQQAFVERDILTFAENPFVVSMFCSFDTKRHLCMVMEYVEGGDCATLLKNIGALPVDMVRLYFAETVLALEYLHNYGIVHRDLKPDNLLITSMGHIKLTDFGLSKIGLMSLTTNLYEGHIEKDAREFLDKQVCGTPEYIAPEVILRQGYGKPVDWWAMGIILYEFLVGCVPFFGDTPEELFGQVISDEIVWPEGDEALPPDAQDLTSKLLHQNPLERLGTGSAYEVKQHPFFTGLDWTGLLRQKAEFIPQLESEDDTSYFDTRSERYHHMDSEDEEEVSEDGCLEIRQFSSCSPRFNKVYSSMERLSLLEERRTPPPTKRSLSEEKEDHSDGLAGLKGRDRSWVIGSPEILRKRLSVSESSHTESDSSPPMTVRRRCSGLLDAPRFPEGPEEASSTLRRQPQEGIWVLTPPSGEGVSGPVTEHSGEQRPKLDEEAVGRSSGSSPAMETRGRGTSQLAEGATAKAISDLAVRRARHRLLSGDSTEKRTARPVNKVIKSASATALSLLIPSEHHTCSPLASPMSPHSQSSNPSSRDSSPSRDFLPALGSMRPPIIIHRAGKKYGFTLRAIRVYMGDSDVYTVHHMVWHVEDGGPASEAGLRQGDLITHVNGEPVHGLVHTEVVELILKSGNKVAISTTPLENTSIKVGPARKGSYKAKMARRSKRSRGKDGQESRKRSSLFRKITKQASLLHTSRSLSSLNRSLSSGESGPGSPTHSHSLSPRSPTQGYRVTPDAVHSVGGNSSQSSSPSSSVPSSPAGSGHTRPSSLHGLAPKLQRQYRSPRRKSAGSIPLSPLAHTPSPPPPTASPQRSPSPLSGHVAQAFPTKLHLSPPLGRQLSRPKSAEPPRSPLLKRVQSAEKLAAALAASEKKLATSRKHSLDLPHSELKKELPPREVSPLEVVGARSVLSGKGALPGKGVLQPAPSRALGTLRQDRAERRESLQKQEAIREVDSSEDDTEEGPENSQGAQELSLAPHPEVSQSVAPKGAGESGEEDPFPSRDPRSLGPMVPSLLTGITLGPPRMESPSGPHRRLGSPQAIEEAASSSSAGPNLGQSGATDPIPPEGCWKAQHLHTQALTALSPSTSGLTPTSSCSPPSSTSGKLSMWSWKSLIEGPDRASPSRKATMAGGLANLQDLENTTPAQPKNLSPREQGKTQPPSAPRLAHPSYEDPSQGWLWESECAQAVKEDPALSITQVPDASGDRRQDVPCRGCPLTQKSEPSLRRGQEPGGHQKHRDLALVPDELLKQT

## MASLGPAAAGEQASGAEAEPGPAGPPPPPSPSSLGPLLPLQREPLYNWQATKASLKERFAFLFNSELLSDVRFVLGKGRGAAAAGGPQRIPAHRFVLAAGSAVFDAMFNGGMATTSAEIELPDVEPAAFLALLRFLYSDEVQIGPETVMTTLYTAKKYAVPALEAHCVEFLTKHLRADNAFMLLTQARLFDEPQLASLCLDTIDKSTMDAISAEGFTDIDIDTLCAVLERDTLSIRESRLFGAVVRWAEAECQRQQLPVTFGNKQKVLGKALSLIRFPLMTIEEFAAGPAQSGILSDREVVNLFLHFTVNPKPRVEYIDRPRCCLRGKECCINRFQQVESRWGYSGTSDRIRFTVNRRISIVGFGLYGSIHGPTDYQVNIQIIEYEKKQTLGQNDTGFSCDGTANTFRVMFKEPIEILPNVCYTACATLKGPDSHYGTKGLKKVVHETPAASKTVFFFFSSPGNNNGTSIEDGQIPEIIFYT [BTBD1]
HeLa Kyoto [1]
  solubility in G1/S (log2): -0.225
HeLa Kyoto [2]
  solubility change mitosis (log2): 0.0289

## MAST2
HeLa Kyoto [1]
  solubility in G1/S (log2): 0.087
HeLa Kyoto [2]
  solubility change mitosis (log2): -0.172

## MATAPGPAGIAMGSVGSLLERQDFSPEELRAALAGSRGSRQPDGLLRKGLGQREFLSYLHLPKKDSKSTKNTKRAPRNEPADYATLYYREHSRAGDFSKTSLPERGRFDKCRIRPSVFKPTAGNGKGFLSMQSLASHKGQKLWRSNGSLHTLACHPPLSPGPRASQARAQLLHALSLDEGGPEPEPSLSDSSSGGSFGRSPGTGPSPFSSSLGHLNHLGGSLDRASQGPKEAGPPAVLSCLPEPPPPYEFSCSSAEEMGAVLPETCEELKRGLGDEDGSNPFTQVLEERQRLWLAELKRLYVERLHEVTQKAERSERNLQLQLFMAQQEQRRLRKELRAQQGLAPEPRAPGTLPEADPSARPEEEARWEVCQKTAEISLLKQQLREAQAELAQKLAEIFSLKTQLRGSRAQAQAQDAELVRLREAVRSLQEQAPREEAPGSCETDDCKSRGLLGEAGGSEARDSAEQLRAELLQERLRGQEQALRFEQERRTWQEEKERVLRYQREIQGGYMDMYRRNQALEQELRALREPPTPWSPRLESSKI [N4BP3]
HeLa Kyoto [1]
  solubility in G1/S (log2): 0.203
HeLa Kyoto [2]
  solubility change mitosis (log2): 0.334

## MATPGSEPQPFVPALSVATLHPLHHPHHHHHHHQHHGGTGAPGGAGGGGGGSGGFNLPLNRGLERALEEAANSGGLNLSARKLKEFPRTAAPGHDLSDTVQADLSKNRLVEVPMELCHFVSLEILNLYHNCIRVIPEAIVNLQMLTYLNLSRNQLSALPACLCGLPLKVLIASNNKLGSLPEEIGQLKQLMELDVSCNEITALPQQIGQLKSLRELNVRRNYLKVLPQELVDLSLVKFDFSCNKVLVIPICFREMKQLQVLLLENNPLQSPPAQICTKGKVHIFKYLSIQACQIKTADSLYLHTMERPHLHQHVEDGKKDSDSGVGSDNGDKRLSATEPSDEDTVSLNVPMSNIMEEEQIIKEDSCHRLSPVKGEFHQEFQPEPSLLGDSTNSGEERDQFTDRADGLHSEFMNYKARAEDCEELLRIEEDVHWQTEGIISSSKDQDMDIAMIEQLREAVDLLQDPNGLSTDITERSVLNLYPMGSAEALELQDSALNGQIQLETSPVCEVQSDLTLQSNGSQYSPNEIRENSPAVSPTTNSTAPFGLKPRSVFLRPQRNLESIDPQFTIRRKMEQMREEKELVEQLRESIEMRLKVSLHEDLGAALMDGVVLCHLVNHIRPRSVASIHVPSPAVPKLSMAKCRRNVENFLEACRKLGVPEADLCSPCDILQLDFRHIRKTVDTLLALGEKAPPPTSALRSRDLIGFCLVHILFIVLVYITYHWNALSA [LRCH1]
HeLa Kyoto [1]
  solubility in G1/S (log2): -0.0599
HeLa Kyoto [2]
  solubility change mitosis (log2): -0.186

## MATVLSRALKLPGKKSPDLGEYDPLTQADSDESEDDLVLNLQKNGGVKNGKSPLGEAPEPDSDAEVAEAAKPHLSEVTTEGYPSEPLGGLEQKAASSLVSYVRTSVFLLTLGISMILVLLCAFLIPCPPRDLHSTWSRHLGSQGGGDLSPLELADVNGDGLRDVLLSFVMSRNGSAVGVSRPAANLVCLSGMNGSTLWSSLLPEEARDITCLELMPGSLAETICLVTGTHKMLSAFNATSGKAIWTLNPNYLSNGTLAAPVVVLPDLDEDGVRDLVVLAIGELQPDLCFLLVSGRTGNPVGRPVKYNIVGVGNLIGPQVYITTNGAVYILFGFGNIQAVALRDIFVQAQNRDSSPPSLQIEEPEWEKRRSINLSELIDVYSDGVELLQMVKAPDSNCSNLLITTRQSLVLLRGQNLTPYWALRLQGLRSQPTPGYFTDDQTLDFLLQIQDGVGMKKMMVVDGDSGSIVWSYRAPCHMKETPATSAVTSDQKSVFLFWAEGLSAASPNSDIILGTEPPSLHHLYLLHPAFPSILLDLANTTGTVTASEVGINDLWKDAFYVTRTTGPSSEGHPAALVVSKLSLRWALMEGQMAQLQESTPKIGRGELRRFLSRIKFVEAPYEI [KIAA1467]
HeLa Kyoto [1]
  solubility in G1/S (log2): 0.0831
HeLa Kyoto [2]
  solubility change mitosis (log2): -0.0551

## MATVQEKAAALNLSALHSPAHRPPGFSVAQKPFGATYVWSSIINTLQTQVEVKKRRHRLKRHNDCFVGSEAVDVIFSHLIQNKYFGDVDIPRAKVVRVCQALMDYKVFEAVPTKVFGKDKKPTFEDSSCSLYRFTTIPNQDSQLGKENKLYSPARYADALFKSSDIRSASLEDLWENLSLKPANSPHVNISATLSPQVINEVWQEETIGRLLQLVDLPLLDSLLKQQEAVPKIPQPKRQSTMVNSSNYLDRGILKAYSDSQEDEWLSAAIDCLEYLPDQMVVEISRSFPEQPDRTDLVKELLFDAIGRYYSSREPLLNHLSDVHNGIAELLVNGKTEIALEATQLLLKLLDFQNREEFRRLLYFMAVAANPSEFKLQKESDNRMVVKRIFSKAIVDNKNLSKGKTDLLVLFLMDHQKDVFKIPGTLHKIVSVKLMAIQNGRDPNRDAGYIYCQRIDQRDYSNNTEKTTKDELLNLLKTLDEDSKLSAKEKKKLLGQFYKCHPDIFIEHFGD [DEPDC7]
HeLa Kyoto [1]
  solubility in G1/S (log2): 0.222
HeLa Kyoto [2]
  solubility change mitosis (log2): -0.0977

## MAVDVAEYHLSVIKSPPGWEVGVYAAGALALLGIAAVSLWKLWTSGSFPSPSPFPNYDYRYLQQKYGESCAEAREKRVPAWNAQRASTRGPPSRKGSLSIEDTFESISELGPLELMGRELDLAPYGTLRKSQSADSLNSISSVSNTFGQDFTLGQVEVSMEYDTASHTLNVAVMQGKDLLEREEASFESCFMRVSLLPDEQIVGISRIQRNAYSIFFDEKFSIPLDPTALEEKSLRFSVFGIDEDERNVSTGVVELKLSVLDLPLQPFSGWLYLQDQNKAADAVGEILLSLSYLPTAERLTVVVVKAKNLIWTNDKTTADPFVKVYLLQDGRKMSKKKTAVKRDDPNPVFNEAMIFSVPAIVLQDLSLRVTVAESSSDGRGDNVGHVIIGPSASGMGTTHWNQMLATLRRPVSMWHAVRRN [SYT12]
HeLa Kyoto [1]
  solubility in G1/S (log2): 0.0502
HeLa Kyoto [2]
  solubility change mitosis (log2): -0.135

## MAVTAQAARRKERVLCLFDVDGTLTPARQKIDPEVAAFLQKLRSRVQIGVVGGSDYCKIAEQLGDGDEVIEKFDYVFAENGTVQYKHGRLLSKQTIQNHLGEELLQDLINFCLSYMALLRLPKKRGTFIEFRNGMLNISPIGRSCTLEERIEFSELDKKEKIREKFVEALKTEFAGKGLRFSRGGMISFDVFPEGWDKRYCLDSLDQDSFDTIHFFGNETSPGGNDFEIFADPRTVGHSVVSPQDTVQRCREIFFPETAHEA [PMM1]
HeLa Kyoto [1]
  solubility in G1/S (log2): 0.195
HeLa Kyoto [2]
  solubility change mitosis (log2): 0.102

## MAVWIQAQQLQGEALHQMQALYGQHFPIEVRHYLSQWIESQAWDSVDLDNPQENIKATQLLEGLVQELQKKAEHQVGEDGFLLKIKLGHYATQLQNTYDRCPMELVRCIRHILYNEQRLVREANNGSSPAGSLADAMSQKHLQINQTFEELRLVTQDTENELKKLQQTQEYFIIQYQESLRIQAQFGPLAQLSPQERLSRETALQQKQVSLEAWLQREAQTLQQYRVELAEKHQKTLQLLRKQQTIILDDELIQWKRRQQLAGNGGPPEGSLDVLQSWCEKLAEIIWQNRQQIRRAEHLCQQLPIPGPVEEMLAEVNATITDIISALVTSTFIIEKQPPQVLKTQTKFAATVRLLVGGKLNVHMNPPQVKATIISEQQAKSLLKNENTRNDYSGEILNNCCVMEYHQATGTLSAHFRNMSLKRIKRSDRRGAESVTEEKFTILFESQFSVGGNELVFQVKTLSLPVVVIVHGSQDNNATATVLWDNAFAEPGRVPFAVPDKVLWPQLCEALNMKFKAEVQSNRGLTKENLVFLAQKLFNNSSSHLEDYSGLSVSWSQFNRENLPGRNYTFWQWFDGVMEVLKKHLKPHWNDGAILGFVNKQQAHDLLINKPDGTFLLRFSDSEIGGITIAWKFDSQERMFWNLMPFTTRDFSIRSLADRLGDLNYLIYVFPDRPKDEVYSKYYTPVPCESATAKAVDGYVKPQIKQVVPEFVNASADAGGGSATYMDQAPSPAVCPQAHYNMYPQNPDSVLDTDGDFDLEDTMDVARRVEELLGRPMDSQWIPHAQS [STAT5B]
HeLa Kyoto [1]
  solubility in G1/S (log2): -0.0111
HeLa Kyoto [2]
  solubility change mitosis (log2): -0.309

## MAWWKAWIEQEGVTVKSSSHFNPDPDAETLYKAMKGIGTNEQAIIDVLTKRSNTQRQQIAKSFKAQFGKDLTETLKSELSGKFERLIVALMYPPYRYEAKELHDAMKGLGTKEGVIIEILASRTKNQLREIMKAYEEDYGSSLEEDIQADTSGYLERILVCLLQGSRDDVSSFVDPALALQDAQDLYAAGEKIRGTDEMKFITILCTRSATHLLRVFEEYEKIANKSIEDSIKSETHGSLEEAMLTVVKCTQNLHSYFAERLYYAMKGAGTRDGTLIRNIVSRSEIDLNLIKCHFKKMYGKTLSSMIMEDTSGDYKNALLSLVGSDP [ANXA8L1]
HeLa Kyoto [1]
  solubility in G1/S (log2): 0.415
HeLa Kyoto [2]
  solubility change mitosis (log2): -0.077

## MCARMAGRTTAAPRGPYGPWLCLLVALALDVVRVDCGQAPLDPVYLPAALELLDAPEHFRVQQVGHYPPANSSLSSRSETFLLLQPWPRAQPLLRASYPPFATQQVVPPRVTEPHQRPVPWDVRAVSVEAAVTPAEPYARVLFHLKGQDWPPGSGSLPCARLHATHPAGTAHQACRFQPSLGACVVELELPSHWFSQASTTRAELAYTLEPAAEGPGGCGSGEENDPGEQALPVGGVELRPADPPQYQEVPLDEAVTLRVPDMPVRPGQLFSATLLLRHNFTASLLTLRIKVKKGLHVTAARPAQPTLWTAKLDRFKGSRHHTTLITCHRAGLTEPDSSPLELSEFLWVDFVVENSTGGGVAVTRPVTWQLEYPGQAPEAEKDKMVWEILVSERDIRALIPLAKAEELVNTAPLTGVPQHVPVRLVTVDGGGALVEVTEHVGCESANTQVLQVSEACDAVFVAGKESRGARGVRVDFWWRRLRASLRLTVWAPLLPLRIELTDTTLEQVRGWRVPGPAEGPAEPAAEASDEAERRARGCHLQYQRAGVRFLAPFAAHPLDGGRRLTHLLGPDWLLDVSHLVAPHARVLDSRVASLEGGRVVVGREPGVTSIEVRSPLSDSILGEQALAVTDDKVSVLELRVQPVMGISLTLSRGTAHPGEVTATCWAQSALPAPKQEVALSLWLSFSDHTVAPAELYDRRDLGLSVSAEEPGAILPAEEQGAQLGVVVSGAGAEGLPLHVALHPPEPCRRGRHRVPLASGTAWLGLPPASTPAPALPSSPAWSPPATEATMGGKRQVAGSVGGNTGVRGKFERAEEEARKEETEAREEEEEEEEEMVPAPQHVTELELGMYALLGVFCVAIFIFLVNGVVFVLRYQRKEPPDSATDPTSPQPHNWVWLGTDQEELSRQLDRQSPGPPKGEGSCPCESGGGGEAPTLAPGPPGGTTSSSSTLARKEAGGRRKRVEFVTFAPAPPAQSPEEPVGAPAVQSILVAGEEDIRWVCEDMGLKDPEELRNYMERIRGSS [TMEM132A]
HeLa Kyoto [1]
  solubility in G1/S (log2): -0.00491
HeLa Kyoto [2]
  solubility change mitosis (log2): -0.0467

## MCDQQKQPQFPPSCVKGSGLGAGQGSNGASVKCPVPCQTQTVCVTGPAPCPTQTYVKYQVPCQTQTYVKCPAPCQRTYVKYPTPCQTYVKCPAPCQTTYVKCPTPCQTYVKCPAPCQMTYIKSPAPCQTQTCYVQGASPCQSYYVQAPASGSTSQYCVTDPCSAPCSTSYCCLAPRTFGVSPLRRWIQRPQNCNTGSSGCCENSGSSGCCGSGGCGCSCGCGSSGCCCLGIIPMRSRGPACCDHEDDCCC [XP32]
HeLa Kyoto [1]
  solubility in G1/S (log2): -1.33
HeLa Kyoto [2]
  solubility change mitosis (log2): 1.06
